Where no end group is shown, it is not given here.
Experiments:
[1] = target: DRB1*0405 complex (HLA-DR4, DRA-DRB1*0405) (Homo sapiens, UniProt P01903+P01911, A100R/A169T/D86S/F76Y/I96L/K127E/L162R/M171V/N62H/P40V/Q125Y/R42H/S133A/S149N/S66Y/V115G/V209L/W38E); format: binding
DRB1*0406 complex = DRB1*0406 complex (Homo sapiens, UniProt P01903+P01911, A100R/A103E/A169T/F76Y/I96L/K127E/L162R/M171V/N62H/P40V/Q125Y/R42H/S133A/S149N/V209L/W38E); format: binding
[2] = target: HLA-DR4 (DRA-DRB1*0406 complex) (human (endogenous in KT13)); assay: radioligand binding
[3] = Solubility of polyalanine-based peptide; format: physicochemical; settings: in words; lysine then inserted at NH2 terminus to increase solubility
[4] = target: HLA-DR4 (DRA-DRB1*0405 complex) (human (endogenous in EBWa)); assay: radioligand binding

Q: Which results are given for KAAYAAVAVAA?
A: IC50 [1]: 5.1 µM; IC50 (DRB1*0406 complex): 12.2 µM

Q: Which IC50 [2] does the source give for K-Ins beta p1-18 (…) (peptide) here?
A: > 500 µM

Q: Which IC50 [1] does the source give for AAFAAMASAA here?
A: 3.6 µM

Q: And the IC50 (DRB1*0406 complex)?
A: 1.1 µM

Q: For AAYAAVAVAA, which Solubility [3] is on record?
A: not soluble

Q: With AAYAALANAA as the molecule, how does the IC50 [1] read?
A: 1.4 µM

Q: And the IC50 (DRB1*0406 complex)?
A: 5 µM

Q: With AALAAIASAA as the molecule, how does the IC50 [1] read?
A: 11 µM

Q: What about the IC50 (DRB1*0406 complex) of the same molecule?
A: 8.8 µM

Q: Which IC50 [2] does the source give for KGIVEQCCTSI [K-Ins alpha p1-10 (…)] here?
A: > 500 µM

Q: With AALAAIASAA as the molecule, how does the IC50 [2] read?
A: 8.8 µM

Q: With KKTSICSLYQLE [KK-Ins alpha p8-17 (…)] as the molecule, how does the IC50 [2] read?
A: 4.1 µM

Q: Which IC50 [2] does the source give for KSLYQLENYCN [K-Ins alpha p12-21 (…)] here?
A: 12 µM

Q: For SDPILYRPVAVALDTKGPE [PKM2p99-117 (…), unlabeled], which percent inhibition of 125I-0405BP3 binding at 20 uM [4] is on record?
A: 90%

Q: What about the percent inhibition of 125I-0405BP3 binding at 20 uM [2] of the same molecule?
A: 71%

Q: With AAKAAKAGAA as the molecule, how does the IC50 [2] read?
A: > 500 µM

Q: What does the source list for GSTVFDNLPNPEIDGDYYGW [0405BP3 (…), unlabeled]?
A: Kd [4]: 0.07 µM; percent inhibition of 125I-0405BP3 binding at 20 uM [4]: 97%; percent inhibition of 125I-0405BP3 binding at 20 uM [2]: 96%

Q: For AAYAALANAA, which IC50 [2] is on record?
A: 5 µM

Q: With NELSGEAHKDALGKLY [irrelevant peptide (…), unlabeled] as the molecule, how does the percent inhibition of 125I-0405BP3 binding at 20 uM [4] read?
A: 1%

Q: What about the percent inhibition of 125I-0405BP3 binding at 20 uM [2] of the same molecule?
A: 2%

Q: With VPIQRAVYQNVVVNN [0405BP1 (…), unlabeled] as the molecule, how does the percent inhibition of 125I-0405BP3 binding at 20 uM [4] read?
A: 103%

Q: And the percent inhibition of 125I-0405BP3 binding at 20 uM [2]?
A: 70%

Q: With KLVEALYLVCGERGFFYTPKT [K-Ins beta p11-30 (…)] as the molecule, how does the IC50 [2] read?
A: 14.5 µM

Q: Which percent by which the substitution inhibited binding (against …) [4] does the source give for GSTVFDNLPAPE [… with 10th N to A] here?
A: 70%

Q: Which IC50 [2] does the source give for AAFAAMASAA here?
A: 1.1 µM

Q: With SPGTGAYYVLLN [0405BP2 (…)] as the molecule, how does the percent inhibition of 125I-0405BP3 binding at 20 uM [4] read?
A: 93%

Q: What about the percent inhibition of 125I-0405BP3 binding at 20 uM [2] of the same molecule?
A: 85%

Q: For KAAYAAVAVAA, which IC50 [2] is on record?
A: 12.2 µM

Q: For GPKPLFRRMSSLVGPTQSFF [CD20p26-45 (…)], which percent inhibition of 125I-0405BP3 binding at 20 uM [4] is on record?
A: 90%

Q: What about the percent inhibition of 125I-0405BP3 binding at 20 uM [2] of the same molecule?
A: 96%

Q: What does the source list for EGQLVSIHSPEEQDFLTKHA [CD23p195-214 (…)]?
A: percent inhibition of 125I-0405BP3 binding at 20 uM [4]: 59%; percent inhibition of 125I-0405BP3 binding at 20 uM [2]: 63%
